B1: anti-αKlotho Fab clone 4811 (Fab, V domains shown)
VH: EVQLVESGGGLVQPGGSLRLSCAASGFNLYYSYMHWVRQAPGKGLEWVASIYSSSSYTSYADSVKGRFTISADTSKNTAYLQMNSLRAEDTAVYYCARSPSWWVSYHSALDYWGQGTLVTVSS
VL: DIQMTQSPSSLSASVGDRVTITCRASQSVSSAVAWYQQKPGKAPKLLIYSASSLYSGVPSRFSGSRSGTDFTLTISSLQPEDFATYYCQQGYALFTFGQGTKVEIKR
notes: Fab (also as Fab-phage); FLAG tag on light chain; also called sb180
B2: sb106 IgG (antibody, V domains shown)
VH: EVQLVESGGGLVQPGGSLRLSCAASGFNISYYSIHWVRQAPGKGLEWVAYISPSYGYTSYADSVKGRFTISADTSKNTAYLQMNSLRAEDTAVYYCARYYVYASHGWAGYGMDYWGQGTLVTVSS
VL: DIQMTQSPSSLSASVGDRVTITCRASQSVSSAVAWYQQKPGKAPKLLIYSASSLYSGVPSRFSGSRSGTDFTLTISSLQPEDFATYYCQQAGYSPITFGQGTKVEIKR
notes: also called sb106 (48) full length IgG

Columns and labels:
[1] = target: T1, extracellular domain (ECD) of human αKlotho, amino acids E34-S981 with C-terminal 6-His tag (R&D Systems … (human, UniProt Q9UEF7 34-981)); test: SPR, Fab captured by anti-H+L antibody, αKlotho injected
T1 construct: range 34-981; also called αKlotho (aa34-981); target antigen
T1 sequence: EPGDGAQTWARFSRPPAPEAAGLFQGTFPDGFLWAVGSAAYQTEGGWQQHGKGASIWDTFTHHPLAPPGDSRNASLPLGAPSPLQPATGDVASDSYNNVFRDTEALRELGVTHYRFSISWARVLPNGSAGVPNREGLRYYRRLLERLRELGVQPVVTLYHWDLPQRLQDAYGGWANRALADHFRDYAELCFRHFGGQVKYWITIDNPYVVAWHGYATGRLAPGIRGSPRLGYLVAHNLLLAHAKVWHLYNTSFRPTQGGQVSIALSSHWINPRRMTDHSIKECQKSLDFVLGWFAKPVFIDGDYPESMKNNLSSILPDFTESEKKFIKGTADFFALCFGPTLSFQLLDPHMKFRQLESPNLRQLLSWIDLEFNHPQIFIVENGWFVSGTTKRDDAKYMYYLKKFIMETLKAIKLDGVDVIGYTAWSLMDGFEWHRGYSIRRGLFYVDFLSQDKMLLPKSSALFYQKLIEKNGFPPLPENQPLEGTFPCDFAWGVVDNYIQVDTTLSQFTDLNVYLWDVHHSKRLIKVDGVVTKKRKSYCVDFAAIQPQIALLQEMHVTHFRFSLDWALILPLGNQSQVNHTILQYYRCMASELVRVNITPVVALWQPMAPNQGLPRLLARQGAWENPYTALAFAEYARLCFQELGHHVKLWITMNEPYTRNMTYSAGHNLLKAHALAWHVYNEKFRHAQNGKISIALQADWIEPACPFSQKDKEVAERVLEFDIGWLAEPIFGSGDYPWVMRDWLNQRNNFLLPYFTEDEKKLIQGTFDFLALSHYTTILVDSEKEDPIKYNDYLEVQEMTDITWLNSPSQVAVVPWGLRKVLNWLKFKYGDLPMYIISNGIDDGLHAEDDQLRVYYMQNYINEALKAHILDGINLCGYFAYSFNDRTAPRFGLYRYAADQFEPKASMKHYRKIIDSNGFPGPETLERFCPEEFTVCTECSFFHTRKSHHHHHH
Procedure: (§1) Affinity estimates for each of the antibodies were determined by surface plasmon resonance (SPR). Fabs were immobilized using an anti-H+L antibody and serial dilutions of αKlotho were injected.

[2] = target: T1, extracellular domain (ECD) of human …; test: SPR, Fab captured by anti-H+L IgG, αKlotho injected at 50 to 6.25 ug/ml, Langmuir fit [continued]
Procedure: as §1

[3] = target: T2, soluble human αKlotho (recombinant) (human, UniProt Q9UEF7 34-981); test: SPR (ProteOn XPR36), Fab captured by anti-IgG(H+L), human αKlotho injected in serial dilutions, Langmuir fit
T2 construct: also called Hu aKL; recombinant human αKlotho
T2 sequence (looked up): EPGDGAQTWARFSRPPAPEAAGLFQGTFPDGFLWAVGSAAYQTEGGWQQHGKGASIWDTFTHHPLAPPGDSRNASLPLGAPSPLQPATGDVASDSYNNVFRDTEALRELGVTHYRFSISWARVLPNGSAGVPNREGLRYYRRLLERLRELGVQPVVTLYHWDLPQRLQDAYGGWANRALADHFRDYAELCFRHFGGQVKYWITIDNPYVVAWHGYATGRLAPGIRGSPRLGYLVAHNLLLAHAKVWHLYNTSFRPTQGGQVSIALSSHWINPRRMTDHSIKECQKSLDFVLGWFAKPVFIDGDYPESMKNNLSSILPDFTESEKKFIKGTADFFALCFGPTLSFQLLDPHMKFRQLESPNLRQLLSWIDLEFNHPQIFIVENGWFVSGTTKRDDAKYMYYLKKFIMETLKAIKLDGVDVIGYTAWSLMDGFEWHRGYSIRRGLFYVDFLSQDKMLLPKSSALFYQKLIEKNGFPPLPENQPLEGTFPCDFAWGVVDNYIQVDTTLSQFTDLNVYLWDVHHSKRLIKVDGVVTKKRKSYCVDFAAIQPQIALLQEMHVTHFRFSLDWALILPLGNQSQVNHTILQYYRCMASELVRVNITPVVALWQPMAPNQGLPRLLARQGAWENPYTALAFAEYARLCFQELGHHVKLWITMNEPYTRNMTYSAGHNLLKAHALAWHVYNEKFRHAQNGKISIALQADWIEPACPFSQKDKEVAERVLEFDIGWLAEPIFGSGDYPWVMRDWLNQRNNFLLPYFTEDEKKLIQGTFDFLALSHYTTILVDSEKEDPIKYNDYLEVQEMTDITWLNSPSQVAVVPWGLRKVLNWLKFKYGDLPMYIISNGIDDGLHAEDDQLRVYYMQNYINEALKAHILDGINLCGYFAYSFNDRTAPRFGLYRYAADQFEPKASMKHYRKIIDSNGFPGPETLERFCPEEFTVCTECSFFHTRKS
Procedure: (§2) Estimated affinities against human and mouse antigen for select αKlotho Fabs were obtained by surface plasmon resonance on a ProteOn XPR36 (FIG. 17). Fabs were captured using an anti-IgG(H+L) antibody and serial dilutions of αKlotho were injected. Binding curves were fitted to the Langmuir model. (A) Determined Kon, Koff and KD values. (B) and (C) Binding curves for human and mouse antigen respectively.

mouse αKlotho [4] = target: T3, mouse αKlotho (mouse, UniProt O35082 35-982); test: SPR (ProteOn XPR36), Fab captured by anti-IgG(H+L), mouse αKlotho injected in serial dilutions, Langmuir fit
T3 construct: also called Mu aKL
T3 sequence (looked up): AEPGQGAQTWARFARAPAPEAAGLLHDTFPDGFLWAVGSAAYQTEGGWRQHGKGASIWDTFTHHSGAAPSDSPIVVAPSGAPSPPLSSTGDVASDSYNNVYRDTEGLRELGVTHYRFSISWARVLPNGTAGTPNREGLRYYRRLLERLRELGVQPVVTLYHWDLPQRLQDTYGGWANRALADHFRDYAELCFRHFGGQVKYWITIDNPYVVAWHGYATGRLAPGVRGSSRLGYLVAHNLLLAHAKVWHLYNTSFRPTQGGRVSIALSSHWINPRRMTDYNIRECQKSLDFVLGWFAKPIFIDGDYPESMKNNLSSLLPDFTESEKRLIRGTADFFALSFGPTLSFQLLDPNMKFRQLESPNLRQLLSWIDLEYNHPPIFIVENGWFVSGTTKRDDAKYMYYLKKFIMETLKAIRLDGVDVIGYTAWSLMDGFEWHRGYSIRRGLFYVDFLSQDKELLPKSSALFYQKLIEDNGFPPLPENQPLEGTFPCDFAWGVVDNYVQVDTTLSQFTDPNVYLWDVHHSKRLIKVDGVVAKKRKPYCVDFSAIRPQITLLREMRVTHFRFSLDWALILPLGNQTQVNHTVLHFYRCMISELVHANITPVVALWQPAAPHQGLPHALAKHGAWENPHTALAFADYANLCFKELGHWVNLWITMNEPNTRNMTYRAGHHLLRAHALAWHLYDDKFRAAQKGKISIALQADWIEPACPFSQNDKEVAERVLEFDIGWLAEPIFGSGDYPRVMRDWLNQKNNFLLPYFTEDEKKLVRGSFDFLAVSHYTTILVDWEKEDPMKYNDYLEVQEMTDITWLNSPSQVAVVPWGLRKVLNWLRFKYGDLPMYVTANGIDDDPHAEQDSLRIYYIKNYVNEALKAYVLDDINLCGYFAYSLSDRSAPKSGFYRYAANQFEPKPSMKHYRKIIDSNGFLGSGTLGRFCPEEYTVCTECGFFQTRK
Procedure: as §2

[5] = target: T2, soluble human αKlotho (recombinant); test: SPR (ProteOn XPR36), Fab captured by anti-IgG(H+L), human αKlotho injected in serial dilutions, Langmuir fit [continued) B.]
Procedure: as §2

mouse αKlotho [6] = target: T3, mouse αKlotho; test: SPR (ProteOn XPR36), Fab captured by anti-IgG(H+L), mouse αKlotho injected in serial dilutions, Langmuir fit [continued) C.]
Procedure: as §2

rat αKlotho (endogenous) = target: T4, rat αKlotho (endogenous) (rat, UniProt Q9Z2Y9 35-983); test: immunohistochemistry, unfixed frozen rat parathyroid tissue
T4 sequence (looked up): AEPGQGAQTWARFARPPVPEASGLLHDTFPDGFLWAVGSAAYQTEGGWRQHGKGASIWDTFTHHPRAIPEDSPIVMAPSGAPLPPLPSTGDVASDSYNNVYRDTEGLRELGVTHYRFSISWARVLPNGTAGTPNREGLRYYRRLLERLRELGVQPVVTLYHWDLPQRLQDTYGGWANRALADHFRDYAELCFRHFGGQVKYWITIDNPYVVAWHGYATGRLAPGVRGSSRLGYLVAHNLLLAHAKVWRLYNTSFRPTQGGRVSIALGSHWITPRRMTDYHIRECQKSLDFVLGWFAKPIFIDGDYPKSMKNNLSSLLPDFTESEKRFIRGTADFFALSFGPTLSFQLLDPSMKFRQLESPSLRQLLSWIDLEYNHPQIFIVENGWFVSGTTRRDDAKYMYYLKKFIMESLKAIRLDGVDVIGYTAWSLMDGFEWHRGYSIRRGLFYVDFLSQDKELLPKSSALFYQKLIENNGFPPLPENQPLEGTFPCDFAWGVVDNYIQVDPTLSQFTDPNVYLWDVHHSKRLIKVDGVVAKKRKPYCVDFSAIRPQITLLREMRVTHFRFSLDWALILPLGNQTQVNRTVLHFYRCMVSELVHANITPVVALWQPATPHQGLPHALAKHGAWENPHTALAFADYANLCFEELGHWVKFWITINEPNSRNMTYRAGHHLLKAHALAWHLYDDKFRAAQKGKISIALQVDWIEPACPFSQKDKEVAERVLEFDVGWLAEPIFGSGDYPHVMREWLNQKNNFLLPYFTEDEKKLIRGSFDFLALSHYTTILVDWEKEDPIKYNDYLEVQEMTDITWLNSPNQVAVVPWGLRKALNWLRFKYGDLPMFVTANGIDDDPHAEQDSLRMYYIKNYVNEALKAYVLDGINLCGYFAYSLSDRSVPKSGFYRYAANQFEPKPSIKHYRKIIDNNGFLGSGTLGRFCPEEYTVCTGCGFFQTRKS
Procedure: For labeling, sections were blocked (PBS, 1.5% BSA, 10% goat serum; 40 min) and incubated with the primary antibody sb106 ([…] in blocking solution; 4° C. overnight). After washing (PBS), sections were incubated with the Alexa 546 goat anti-human IgG (1:800 dilution, Invitrogen) for 1 hour at room temperature. After additional washes with PBS, the sections were fixed with 4% paraformaldehyde in PBS, washed with PBS, and mounted and visualized with a Zeiss LSM510 microscope.
Sb106 was highly reactive against αKlotho under native conditions. Immunoblot signals under denaturing conditions against mouse, rat, and human kidney tissue were weak, but in samples from transgenic mice overexpressing αKlotho [79], sb106-Fab detected a band corresponding to the full-length extracellular domain of αKlotho (FIG. 2A). In cultured cells, sb106-Fab was not able to detect αKlotho in immunoblots under denaturing conditions with lysates from NRK cells expressing native αKlotho but it was able to detect overexpressed antigen in cell lysates from HEK293 cells transfected with αKlotho (FIG. 2B). […] Cells were then incubated with sb106-Fab (5 μg/ml in 1% BSA in PBS) for 1 hr. […]

Row | Binder | Kd [1] [nM] | Kd [2] [nM] | koff [2] [s⁻¹] | kon [2] [M⁻¹ s⁻¹] | Kd [3] [nM] | koff [3] [s⁻¹] | kon [3] [M⁻¹ s⁻¹] | Kd (mouse αKlotho [4]) [nM] | koff (mouse αKlotho [4]) [s⁻¹] | kon (mouse αKlotho [4]) [M⁻¹ s⁻¹] | Kd [5] [nM] | koff [5] [s⁻¹] | kon [5] [M⁻¹ s⁻¹] | Kd (mouse αKlotho [6]) [nM] | koff (mouse αKlotho [6]) [s⁻¹] | kon (mouse αKlotho [6]) [M⁻¹ s⁻¹] | binding result (rat αKlotho (endogenous))
1 | B1 | 2.3 | 1.13 | 0.000609 | 537000 | 1.48 | 0.000516 | 349000 | 19.9 | 0.00545 | 273000 | 1.48 | 0.000516 | 349000 | 10.3 | 0.00276 | 268000 | –
2 | B2 | – | – | – | – | – | – | – | – | – | – | – | – | – | – | – | – | binds

Reference: patent US20190041402A1 (GOVERNING COUNCIL OF THE UNIVERSITY OF TORONTO, published 2019)
